The assay addresses RapR-LIMK1-Flag (LIMK1 T508D with iFKBP inserted in place of E360, flanked by GPG linkers) (UniProt P53667). In words: co-IP.

Consider “TrkB-EGFP (tropomyosin receptor kinase B, EGFP-tagged) (from UniProt Q16620 32-822)”, for which the normalized binding to TrkB (500 nM rapamycin) is 98.6%.

Source of the values: article PMC10651130.
